Target: ZIKV sE-WT protein (Zika virus)
Assay: SPR (BIOCORE8000), sE amine-coupled on CM5 chip, antibody as mobile phase

Substance: 2A10G6 antibody
- Kd: 9.13 nM

— patent US12642846B2
